# B1: Probe 1m (dsDNA)
# DNA 1: AGCTCACGGCCTGAGTTAACAAAG
# DNA 2: CTTTGTTAACTCAGGCCGTGAGCT
# B2: Probe 2m (dsDNA)
# DNA 1: AGGGTTTTAAGGCCCTATTCAGTG
# DNA 2: CACTGAATAGGGCCTTAAAACCCT
# B3: Probe 6m (dsDNA)
# DNA 1: AGAAATCCTTAGGCCTTGACTTTG
# DNA 2: CAAAGTCAAGGCCTAAGGATTTCT
# B4: Probe 2 (Site 2) (dsDNA)
# DNA 1: AGGGTTTTAATTAACTATTCAGTG
# DNA 2: CACTGAATAGTTAATTAAAACCCT
# Experiments:
# [1] = target: T1, POU4F1-s (UniProt Q01851 85-419); assay: competition EMSA; conditions: unlabeled, vs 32P-Probe 2; strongest competitor; 10 mM Tris-Cl pH 7.9, 100 mM KCl, 5 mM MgCl2, 1 mM EDTA, 1 mM DTT, 0.5 mM PMSF, 5% glycerol, 1 ug poly(dI-dC), on ice 30 min; 5% polyacrylamide gel
# T1 sequence: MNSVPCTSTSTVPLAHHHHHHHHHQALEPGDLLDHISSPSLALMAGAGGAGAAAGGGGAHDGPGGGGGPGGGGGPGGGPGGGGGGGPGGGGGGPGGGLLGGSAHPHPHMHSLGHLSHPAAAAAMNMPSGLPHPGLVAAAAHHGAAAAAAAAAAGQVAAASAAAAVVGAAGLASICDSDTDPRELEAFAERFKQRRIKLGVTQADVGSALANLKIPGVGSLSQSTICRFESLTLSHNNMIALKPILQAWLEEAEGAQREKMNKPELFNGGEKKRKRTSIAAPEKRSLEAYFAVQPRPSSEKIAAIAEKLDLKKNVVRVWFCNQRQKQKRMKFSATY
# [2] = target: T2, POU4F2-l (UniProt Q12837 1-409); assay: EMSA; 10 mM Tris-Cl pH 7.9, 100 mM KCl, 5 mM MgCl2, 1 mM EDTA, 1 mM DTT, 0.5 mM PMSF, 5% glycerol, 1 ug poly(dI-dC), on ice 30 min; 5% polyacrylamide gel; conditions: protein: ivt
# T2 sequence: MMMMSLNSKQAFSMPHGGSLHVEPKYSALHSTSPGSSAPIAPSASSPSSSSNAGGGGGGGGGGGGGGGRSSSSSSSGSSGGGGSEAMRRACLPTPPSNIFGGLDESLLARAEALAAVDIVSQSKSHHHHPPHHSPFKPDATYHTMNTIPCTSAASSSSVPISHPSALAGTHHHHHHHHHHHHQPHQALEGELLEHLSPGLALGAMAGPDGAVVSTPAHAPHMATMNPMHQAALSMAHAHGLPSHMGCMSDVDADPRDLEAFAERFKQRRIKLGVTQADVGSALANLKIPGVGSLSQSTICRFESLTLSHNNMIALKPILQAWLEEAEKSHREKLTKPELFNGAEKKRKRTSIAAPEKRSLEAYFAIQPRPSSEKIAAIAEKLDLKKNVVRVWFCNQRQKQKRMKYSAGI
# [3] = target: T3, POU4F2-s (UniProt Q12837 98-409); assay: as above; conditions: protein: ivt
# T3 sequence: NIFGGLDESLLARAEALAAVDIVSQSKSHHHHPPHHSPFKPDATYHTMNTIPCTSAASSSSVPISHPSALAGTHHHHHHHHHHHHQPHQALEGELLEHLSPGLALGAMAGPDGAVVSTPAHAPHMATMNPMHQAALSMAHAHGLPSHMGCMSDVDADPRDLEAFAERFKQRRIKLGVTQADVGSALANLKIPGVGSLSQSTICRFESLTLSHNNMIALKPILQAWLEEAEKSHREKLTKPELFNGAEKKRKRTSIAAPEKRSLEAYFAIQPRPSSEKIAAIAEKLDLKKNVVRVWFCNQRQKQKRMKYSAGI
# [4] = target: T4, POU4F1-l (UniProt Q01851 1-419); assay: as above; conditions: protein: ivt
# T4 sequence: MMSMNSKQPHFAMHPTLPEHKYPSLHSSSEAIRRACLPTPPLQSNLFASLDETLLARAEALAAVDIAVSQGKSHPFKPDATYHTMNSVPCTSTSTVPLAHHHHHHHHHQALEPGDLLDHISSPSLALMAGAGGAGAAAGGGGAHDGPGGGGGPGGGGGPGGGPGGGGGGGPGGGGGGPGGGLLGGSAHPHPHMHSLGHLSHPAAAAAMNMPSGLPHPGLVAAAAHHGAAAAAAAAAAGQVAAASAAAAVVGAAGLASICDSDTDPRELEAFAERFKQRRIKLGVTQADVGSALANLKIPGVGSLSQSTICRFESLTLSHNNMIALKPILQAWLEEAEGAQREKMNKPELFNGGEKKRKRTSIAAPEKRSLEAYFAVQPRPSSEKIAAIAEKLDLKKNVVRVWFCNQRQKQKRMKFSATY
# [5] = target: T1, POU4F1-s; assay: as above; conditions: protein: ivt; label: 32P fill-in; overhangs filled in by Klenow
# [6] = target: T5, POU4F3 (UniProt Q15319 1-338); assay: as above; conditions: protein: ivt
# T5 sequence: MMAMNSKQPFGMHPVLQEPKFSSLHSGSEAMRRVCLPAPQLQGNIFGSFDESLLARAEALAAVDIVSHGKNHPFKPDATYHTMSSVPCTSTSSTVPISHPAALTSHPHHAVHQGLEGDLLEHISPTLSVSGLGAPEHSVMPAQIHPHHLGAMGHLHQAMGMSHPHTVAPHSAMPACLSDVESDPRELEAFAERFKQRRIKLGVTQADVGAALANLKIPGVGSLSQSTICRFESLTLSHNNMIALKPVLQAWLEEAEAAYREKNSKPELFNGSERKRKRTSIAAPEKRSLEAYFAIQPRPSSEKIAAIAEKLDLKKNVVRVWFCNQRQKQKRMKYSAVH
# [7] = label: 32P fill-in, overhangs filled in by Klenow
# [8] = overhangs filled in by Klenow when labeled
Molecule,binding signal (relative binding strength) [1],"binding result [2, 7]","binding result [3, 7]","binding result [4, 7]",binding result [5],"binding result [6, 7]","binding result [2, 8]","binding result [3, 8]","binding result [4, 8]","binding result [6, 8]"
POU4F1 consensus site competitor,1000,,,,,,,,,
B1,,no binding,no binding,no binding,no binding,no binding,,,,
B2,,,,,,,no binding,no binding,no binding,no binding
B3,,no binding,no binding,no binding,no binding,no binding,,,,
B4,,,,,,,binds,binds,,binds
